From patent US20250312499A1, “KISSPEPTIN RECEPTOR (KISS1R) TARGETED THERAPEUTICS AND USES THEREOF” (priority 2024, published 2025) come the findings set out here.

B1: Compound 199 (peptide)
peptide: {DOTA-Ahx}-TNRNFL[Api(1-amidino)]F-NH2
SMILES: CC(C)C[C@H](NC(=O)[C@H](Cc1ccccc1)NC(=O)[C@H](CC(N)=O)NC(=O)[C@H](CCCNC(=N)N)NC(=O)[C@H](CC(N)=O)NC(=O)[C@@H](NC(=O)CCCCCNC(=O)CN1CCN(CC(=O)O)CCN(CC(=O)O)CCN(CC(=O)O)CC1)[C@@H](C)O)C(=O)NC1(C(=O)N[C@@H](Cc2ccccc2)C(N)=O)CCN(C(=N)N)CC1
B2: Compound 251 (peptide)
peptide: {HO(CH2CH2O)2CH2CH2CO}-K(DOTA)TF[azaGly]L[X2][4Pal]-NH2
SMILES: Cc1ccc(CNCC(=O)N2CCC(NC(=O)[C@H](CC(C)C)NC(=O)NNC(=O)[C@H](Cc3ccccc3)NC(=O)[C@@H](NC(=O)[C@H](CCCCNC(=O)CN3CCN(CC(=O)O)CCN(CC(=O)O)CCN(CC(=O)O)CC3)NC(=O)CCOCCOCCO)[C@@H](C)O)(C(=O)N[C@@H](Cc3ccncc3)C(N)=O)CC2)cc1F
B3: Compound 189 (peptide)
peptide: {DOTA-Ahx}-F[azaGly]L[X7]W-NH2
SMILES: CNC(=N)N1CCC(NC(=O)[C@H](CC(C)C)NC(=O)NNC(=O)[C@H](Cc2ccccc2)NC(=O)CCCCCNC(=O)CN2CCN(CC(=O)O)CCN(CC(=O)O)CCN(CC(=O)O)CC2)(C(=O)N[C@@H](Cc2c[nH]c3ccccc23)C(N)=O)CC1
B4: Compound 337 (peptide)
peptide: {DOTA-Ahx}-[dK](Butanoyl(4-(4-I-phenyl)))[Ahx][dY][d2Nal]NTF[azaGly]L[Api(1-amidino)]W-NH2
SMILES: CC(C)C[C@H](NC(=O)NNC(=O)[C@H](Cc1ccccc1)NC(=O)[C@@H](NC(=O)[C@H](CC(N)=O)NC(=O)[C@@H](Cc1ccc2ccccc2c1)NC(=O)[C@@H](Cc1ccc(O)cc1)NC(=O)CCCCCNC(=O)[C@@H](CCCCNC(=O)CCCc1ccc(I)cc1)NC(=O)CCCCCNC(=O)CN1CCN(CC(=O)O)CCN(CC(=O)O)CCN(CC(=O)O)CC1)[C@@H](C)O)C(=O)NC1(C(=O)N[C@@H](Cc2c[nH]c3ccccc23)C(N)=O)CCN(C(=N)N)CC1
B5: Compound 121 (peptide)
peptide: {DOTA}-[dY][Phe(4-I)]NT[Phe(4-I)][azaGly]L[Api(1-amidino)][4Pal]-NH2
SMILES: CC(C)C[C@H](NC(=O)NNC(=O)[C@H](Cc1ccc(I)cc1)NC(=O)[C@@H](NC(=O)[C@H](CC(N)=O)NC(=O)[C@H](Cc1ccc(I)cc1)NC(=O)[C@@H](Cc1ccc(O)cc1)NC(=O)CN1CCN(CC(=O)O)CCN(CC(=O)O)CCN(CC(=O)O)CC1)[C@@H](C)O)C(=O)NC1(C(=O)N[C@@H](Cc2ccncc2)C(N)=O)CCN(C(=N)N)CC1
B6: Compound 19 (peptide)
peptide: {DOTA}-[dK][dN]F[azaGly]L[X2]W-NH2
SMILES: Cc1ccc(CNCC(=O)N2CCC(NC(=O)[C@H](CC(C)C)NC(=O)NNC(=O)[C@H](Cc3ccccc3)NC(=O)[C@@H](CC(N)=O)NC(=O)[C@@H](CCCCN)NC(=O)CN3CCN(CC(=O)O)CCN(CC(=O)O)CCN(CC(=O)O)CC3)(C(=O)N[C@@H](Cc3c[nH]c4ccccc34)C(N)=O)CC2)cc1F
B7: Compound 171 (peptide)
peptide: {DOTA}-ENT[Phe(3-F)][azaGly]L[X2][4Pal]-NH2
SMILES: Cc1ccc(CNCC(=O)N2CCC(NC(=O)[C@H](CC(C)C)NC(=O)NNC(=O)[C@H](Cc3cccc(F)c3)NC(=O)[C@@H](NC(=O)[C@H](CC(N)=O)NC(=O)[C@H](CCC(=O)O)NC(=O)CN3CCN(CC(=O)O)CCN(CC(=O)O)CCN(CC(=O)O)CC3)[C@@H](C)O)(C(=O)N[C@@H](Cc3ccncc3)C(N)=O)CC2)cc1F
B8: Compound 18 (peptide)
peptide: {DOTA}-[dN][dN]F[azaGly]L[X2]W-NH2
SMILES: Cc1ccc(CNCC(=O)N2CCC(NC(=O)[C@H](CC(C)C)NC(=O)NNC(=O)[C@H](Cc3ccccc3)NC(=O)[C@@H](CC(N)=O)NC(=O)[C@@H](CC(N)=O)NC(=O)CN3CCN(CC(=O)O)CCN(CC(=O)O)CCN(CC(=O)O)CC3)(C(=O)N[C@@H](Cc3c[nH]c4ccccc34)C(N)=O)CC2)cc1F
B9: Compound 21 (peptide)
peptide: {DOTA}-[dN]F[azaGly]L[X2]W-NH2
SMILES: Cc1ccc(CNCC(=O)N2CCC(NC(=O)[C@H](CC(C)C)NC(=O)NNC(=O)[C@H](Cc3ccccc3)NC(=O)[C@@H](CC(N)=O)NC(=O)CN3CCN(CC(=O)O)CCN(CC(=O)O)CCN(CC(=O)O)CC3)(C(=O)N[C@@H](Cc3c[nH]c4ccccc34)C(N)=O)CC2)cc1F
B10: Compound 14 (peptide)
peptide: {DOTA}-[βAla][dN][dN][dN][dN][dN]F[azaGly]L[X2]W-NH2
SMILES: Cc1ccc(CNCC(=O)N2CCC(NC(=O)[C@H](CC(C)C)NC(=O)NNC(=O)[C@H](Cc3ccccc3)NC(=O)[C@@H](CC(N)=O)NC(=O)[C@@H](CC(N)=O)NC(=O)[C@@H](CC(N)=O)NC(=O)[C@@H](CC(N)=O)NC(=O)[C@@H](CC(N)=O)NC(=O)CCNC(=O)CN3CCN(CC(=O)O)CCN(CC(=O)O)CCN(CC(=O)O)CC3)(C(=O)N[C@@H](Cc3c[nH]c4ccccc34)C(N)=O)CC2)cc1F
B11: Compound 13 (peptide)
peptide: {DOTA-Ahx}-[dA][dA][dA][dA][dA]F[azaGly]L[X2]W-NH2
SMILES: Cc1ccc(CNCC(=O)N2CCC(NC(=O)[C@H](CC(C)C)NC(=O)NNC(=O)[C@H](Cc3ccccc3)NC(=O)[C@@H](C)NC(=O)[C@@H](C)NC(=O)[C@@H](C)NC(=O)[C@@H](C)NC(=O)[C@@H](C)NC(=O)CCCCCNC(=O)CN3CCN(CC(=O)O)CCN(CC(=O)O)CCN(CC(=O)O)CC3)(C(=O)N[C@@H](Cc3c[nH]c4ccccc34)C(N)=O)CC2)cc1F
B12: Compound 12 (peptide)
peptide: {DOTA-Ahx}-F[Sar]L[X2]W-NH2
SMILES: Cc1ccc(CNCC(=O)N2CCC(NC(=O)[C@H](CC(C)C)NC(=O)CN(C)C(=O)[C@H](Cc3ccccc3)NC(=O)CCCCCNC(=O)CN3CCN(CC(=O)O)CCN(CC(=O)O)CCN(CC(=O)O)CC3)(C(=O)N[C@@H](Cc3c[nH]c4ccccc34)C(N)=O)CC2)cc1F
B13: Compound 5 (peptide)
peptide: {DOTA-Ahx}-F[azaGly]L[Api(1-amidino)]W-NH2
SMILES: CC(C)C[C@H](NC(=O)NNC(=O)[C@H](Cc1ccccc1)NC(=O)CCCCCNC(=O)CN1CCN(CC(=O)O)CCN(CC(=O)O)CCN(CC(=O)O)CC1)C(=O)NC1(C(=O)N[C@@H](Cc2c[nH]c3ccccc23)C(N)=O)CCN(C(=N)N)CC1
B14: Compound 226 (peptide)
peptide: Octanoyl-K(DOTA)NTF[azaGly]L[Api(1-amidino)][4Pal]-NH2
SMILES: CCCCCCCC(=O)N[C@@H](CCCCNC(=O)CN1CCN(CC(=O)O)CCN(CC(=O)O)CCN(CC(=O)O)CC1)C(=O)N[C@@H](CC(N)=O)C(=O)N[C@H](C(=O)N[C@@H](Cc1ccccc1)C(=O)NNC(=O)N[C@@H](CC(C)C)C(=O)NC1(C(=O)N[C@@H](Cc2ccncc2)C(N)=O)CCN(C(=N)N)CC1)[C@@H](C)O
B15: Compound 260 (peptide)
peptide: {DOTA-4Amb}-F[azaGly][dL][X2]W-NH2
SMILES: Cc1ccc(CNCC(=O)N2CCC(NC(=O)[C@@H](CC(C)C)NC(=O)NNC(=O)[C@H](Cc3ccccc3)NC(=O)c3ccc(CNC(=O)CN4CCN(CC(=O)O)CCN(CC(=O)O)CCN(CC(=O)O)CC4)cc3)(C(=O)N[C@@H](Cc3c[nH]c4ccccc34)C(N)=O)CC2)cc1F

For orientation: Ki means the dissociation constant of the complex between target and ligand, obtained from inhibition or displacement. A lower Ki goes with higher affinity.

Numbered stars: 1 amine (or outer) side, 2 acyl side, 3 side chain; on linkers, the order of the positions; unused ones are H or OH. Square brackets hold non-standard residues; d marks the D form. Ends that are not written are not given here. * marks the point of attachment. X2 = 4‑amino‑1‑((3-fluoro-4-methylbenzyl)glycyl)piperidine‑4‑carboxylic acid, Cc1ccc(CN(CC(=O)N2CCC(N[*:1])(C(=O)[*:2])CC2)[*:3])cc1F; X7 = 4‑amino‑1‑(N-methylcarbamimidoyl)piperidine‑4‑carboxylic acid, CNC(=N)N1CCC(N[*:1])(C(=O)[*:2])CC1; Apc(4-OMe) = 4-aminopiperidine-4-carboxylic acid residue N1-acylated by a methoxy-bearing benzylglycyl; DOTA = O=C(O)CN1CCN(CC(=O)O)CCN(CC(=O)*)CCN(CC(=O)O)CC1; Butanoyl(4-(4-I-phenyl)) = O=C(CCCc1ccc(I)cc1)*; Api(1-amidino) = N=C(N)N1CCC(N)(C(=O)O)CC1; HO(CH2CH2O)2CH2CH2CO = O=C(CCOCCOCCO)*; Phe(3-F) = N[C@@H](Cc1cccc(F)c1)C(=O)O; Phe(4-I) = N[C@@H](Cc1ccc(I)cc1)C(=O)O; d2Nal = N[C@H](Cc1ccc2ccccc2c1)C(=O)O; 4Pal = N[C@@H](Cc1ccncc1)C(=O)O; d(β3hD) = NC(CC(=O)O)CC(=O)O; 4Amb = NCc1ccc(C(=O)O)cc1; Pip = O=C(O)[C@@H]1CCCCN1; Octanoyl = CCCCCCCC(=O)*; APM = not defined here; Ahx = NCCCCCC(=O)O; azaGly = NNC(=O)O; βAla = NCCC(=O)O; Sar = CNCC(=O)O

Sequence of human kisspeptin receptor (KISS1R) (human) (Q969F8 whole entry): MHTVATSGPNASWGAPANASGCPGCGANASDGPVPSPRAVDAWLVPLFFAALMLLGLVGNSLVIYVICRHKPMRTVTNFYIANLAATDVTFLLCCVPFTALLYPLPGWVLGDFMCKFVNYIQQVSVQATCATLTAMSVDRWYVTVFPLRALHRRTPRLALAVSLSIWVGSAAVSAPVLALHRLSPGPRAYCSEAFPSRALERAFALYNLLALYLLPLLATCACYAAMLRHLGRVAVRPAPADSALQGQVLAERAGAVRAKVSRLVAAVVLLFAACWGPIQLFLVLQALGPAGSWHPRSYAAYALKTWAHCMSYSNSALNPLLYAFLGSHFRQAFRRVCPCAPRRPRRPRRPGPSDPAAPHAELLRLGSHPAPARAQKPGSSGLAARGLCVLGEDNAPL

The target in one experiment is human kisspeptin receptor (KISS1R) (human), Q969F8. Nature of the experiment: radioligand competition, hKISS1R membranes; legend: C is >100 nM. On the technique in general: In a radioligand displacement assay an active substance lowers the binding of a labelled ligand.
Sequence of human kisspeptin receptor (KISS1R) (human), Q969F8 (Q969F8 whole entry): as above
Take B1: the Ki was greater than 100 nM. As to {DOTA-APM}-F[azaGly]L[X2]H-NH2 (reading uncertain) [Compound 248], the inhibition constant Ki was greater than 100 nM. B2: the Ki was greater than 100 nM. Same read-out and setting: the result for ENTF[azaGly][dL][Apc(4-OMe)]F [Compound 239] reads greater than 100 nM; that for B3, greater than 100 nM.

Another experiment concerns the target human kisspeptin receptor (KISS1R) (human) (UniProt Q969F8). Nature of the experiment: radioligand competition, hKISS1R membranes; legend: A is <10 nM.
{DOTA-Ahx}-[dY][d2Nal]NTF[azaGly]L[Pip][dW]-NH2 [Compound 339]: the Ki was less than 10 nM. The molecule B4 came in with an inhibition constant Ki of less than 10 nM.

As to {DOTA-Ahx}-[dY][d2Nal]NTF[azaGly]L[4‑amino‑1‑((4-iodobenzyl)glycyl)piperidine‑4‑carboxylic acid][dW]-NH2 [Compound 371], the inhibitory constant (Ki) is less than 10 nM.

As to {DOTA-Ahx}-[dY][d2Nal]NTF[azaGly]L[4‑amino‑1‑(octylglycyl)piperidine‑4‑carboxylic acid][dW]-NH2 [Compound 374], the Ki is less than 10 nM.

The next experiment deals with human kisspeptin receptor (KISS1R) (human), Q969F8. Nature of the experiment: radioligand competition, hKISS1R membranes; legend: B is 10-100 nM.
Regarding B5, the inhibition constant (Ki) lay in the range of 10 to 100 nM. On the same count and under the same terms, the result for B6 reads 10 to 100 nM.

In turn, B7 gave a Ki of 10 to 100 nM. On the same count and under the same terms, then B8, with 10 to 100 nM; and {DOTA-trans‑4‑(aminomethyl)cyclohexane‑1‑carboxylic acid}-[D‑3‑aminopentanedioic acid]NT[Phe(3-F)][azaGly]L[X2][4Pal]-NH2 [Compound 231], with 10 to 100 nM. With B9, the Ki was 10 to 100 nM. As to {DOTA}-[d(β3hD)]NT[Phe(3-F)][azaGly]L[X2][4Pal]-NH2 [Compound 230], the Ki is 10 to 100 nM. Regarding B10, the inhibition constant (Ki) fell in the range of 10 to 100 nM. In the case of B11, the inhibition constant (Ki) lay in the range of 10 to 100 nM. On the same count and under the same terms, then B12, with 10 to 100 nM; and B13, with 10 to 100 nM.

As to B14, the Ki lay in the range of 10 to 100 nM. Same read-out and setting: the result for {DOTA-Ahx}-F[azaGly]L[4‑amino‑1‑(4-(p-tolyl)butanoyl)piperidine‑4‑carboxylic acid]W-NH2 [Compound 7] reads 10 to 100 nM; that for B15, 10 to 100 nM.
